Laboratory results: the supplement of paper PMC10567573

B1: PBXIP1 (parent)
chain: FGEDGIFRHDRLRFRDFVDALEDS

Variants of: B1
Assay: protein stability index of a GFP-peptide fusion (GPS, HEK-293T) (PSI 1-6); higher = more stable
Conditions: c terminus: a fixed tail appended
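Also: lentivirally expressed fusions sorted by FACS into six bins by GFP to DsRed ratio, PSI derived from sequencing read proportions per bin multiplied by bin number.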

Protein stability index, by site and new letter:
D10: L 2.16, H 2.39, R 2.15, P 1.85, Y 1.79, C 1.85, E 2.63, Q 1.86, A 1.96, F 2.16, K 2.04, M 2.19, N 2.83, V 1.52, W 1.74, I 1.67, S 2.06, G 2.33, T 2.07
R8: D 3.74, V 2.93, N 3.16, P 3.8, M 3.06, H 2.65, L 2.55, T 2.48, I 3.09, A 3.29, W 2.05, Q 2.97, G 2.93, S 2.85, F 1.95, E 4.23, K 2.23, Y 2.46, C 2.51
R11: N 3.09, E 3.36, H 2.83, I 2.43, L 2.33, M 2.44, D 3.95, P 3.13, V 2.46, G 3.12, W 2.49, Q 3.29, A 2.57, Y 2.35, C 2.73, T 3.02, S 2.73, F 2.5, K 2.57
H9: K 2.08, P 2.88, C 2.47, D 3.76, Q 2.42, A 2.84, R 2.39, G 3.19, I 2.41, S 2.79, W 2.04, L 2.4, Y 2.46, M 2.73, F 2.26, E 3.5, N 3.28, V 2.82, T 2.4
D4: F 1.74, K 1.82, I 1.73, G 1.17, W 1.72, P 1.94, H 1.89, T 2.24, Y 1.73, N 1.98, R 2.74, M 1.79, V 2.76, Q 1.83, L 1.99, S 1.77
G5: I 2.86, S 1.95, E 3.68, Q 3.23, R 3.02, A 3.02, T 2.88, P 3.37, L 2.54, C 2.67, K 2.12, F 1.66, Y 2.59, M 3.23, H 3.17, V 3.19, N 2.34, D 3.5, W 1.4
I6: R 3.72, A 2.23, M 1.97, G 3.65, D 4.38, V 2.76, Y 2.24, S 2.74, P 3.18, E 4.52, F 1.33, W 1.96, H 4, T 2.95, N 3.46, C 2.33, K 2.7, L 2.3, Q 3.86
F7: H 3.91, V 3.72, Y 2.98, K 3.38, W 1.95, I 3.51, R 2.84, L 3.13, P 3.88, M 4.07, S 2.97, T 2.71, C 2.95, A 3.42, Q 3.36, D 4.33, N 4.02, G 3.7, E 4.84
L12: S 2.55, W 2.7, V 2.65, N 3.14, M 2.51, A 2.88, F 2.56, P 2.43, C 2.74, H 2.73, E 3.51, G 3.31, Q 3.17, K 2.46, I 3.05, D 3.38, R 2.58, T 2.44
